# Assay results taken from paper PMC5607099 (Molecular microbiology, 2017).
# Ends that are not written are not given here. * marks the point of attachment. Biotin = O=C1N[C@H]2[C@H](CS[C@H]2CCCCC(=O)*)N1
# T1: His-tagged TamA (purified recombinant) (E. coli, UniProt P0ADE4 22-577)
# T1 sequence (looked up): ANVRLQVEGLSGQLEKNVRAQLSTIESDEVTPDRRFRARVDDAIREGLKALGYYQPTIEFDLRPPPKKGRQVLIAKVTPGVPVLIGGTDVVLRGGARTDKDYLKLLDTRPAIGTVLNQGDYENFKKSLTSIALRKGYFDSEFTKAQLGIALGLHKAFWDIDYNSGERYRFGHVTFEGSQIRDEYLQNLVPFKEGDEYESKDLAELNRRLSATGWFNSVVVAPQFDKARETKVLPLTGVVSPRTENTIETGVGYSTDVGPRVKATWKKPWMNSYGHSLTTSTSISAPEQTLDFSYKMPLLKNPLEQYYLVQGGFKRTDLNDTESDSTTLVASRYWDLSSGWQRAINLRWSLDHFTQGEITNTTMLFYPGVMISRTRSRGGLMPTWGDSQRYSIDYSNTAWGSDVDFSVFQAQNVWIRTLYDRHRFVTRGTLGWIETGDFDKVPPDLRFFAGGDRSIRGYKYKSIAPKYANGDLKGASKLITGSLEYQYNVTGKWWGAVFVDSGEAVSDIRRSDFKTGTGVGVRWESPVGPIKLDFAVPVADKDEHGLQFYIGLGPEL
# Key:
# [1] = target: His-tagged BamA (purified recombinant) (E. coli, UniProt P0A940 21-810); assay: peptide or protein array
# [2] = target: T1, His-tagged TamA (purified recombinant); assay: peptide or protein array
# [3] = target: T1, His-tagged TamA (purified recombinant); assay: cross-linking
# [4] = target: the molecule itself; assay: semi-native SDS-PAGE
Binder,binding result [1],binding result [2],also measured
INAGLLNYNFSGNSVQNRSA [FimD peptide 1 (β-strand 1)],binds,,
GGNSHYAYLNLQSGLNIGAA [FimD peptide 2 (β-strand 2)],binds,,
"FDGINFRGAQLASDDNMLSA [FimD peptide 6 (β-strand 6), on the array]",,binds,
GGYGNANIGYSHSDDIKQSA [FimD peptide 23 (β-strand 23)],,binds,
Biotin-FDGINFRGAQLASDDNMLK [Biotin-FDGINFRGAQLASDDNMLK (FimD peptide 6 with N-terminal biotin and C-terminal lysine)],,,binding result [3]: binds
"His-tagged OmpF (natural protein, UniProt P02931 23-362, looked up) AEIYNKDGNKVDLYGKAVGLHYFSKGNGENSYGGNGDMTYARLGFKGETQINSDLTGYGQWEYNFQGNNSEGADAQTGNKTRLAFAGLKYADVGSFDYGRNYGVVYDALGYTDMLPEFGGDTAYSDDFFVGRVGGVATYRNSNFFGLVDGLNFAVQYLGKNERDTARRSNGDGVGGSISYEYEGFGIVGAYGAADRTNLQEAQPLGNGKKAEQWATGLKYDANNIYLAANYGETRNATPITNKFTNTSGFANKTQDVLLVAQYQFDFGLRPSIAYTKSKAKDVEGIGDVDLVNYFEVGATYYFNKNMSTYVDYIINQIDSDNKLGVGSDDTVAVGIVYQF",,,stoichiometry N [4]: 3
